Test results reported in paper PMC9482650, “Quantitative fragmentomics allow affinity mapping of interactomes” (Nature Communications, 2022).

Key:
Assay in all cases: holdup assay
Design in all cases: key: below the threshold = too weak to quantify, mostly under pKd 3.1 to 4
APBA2_1, Q99767 = molecular target: T1, APBA2_1, Q99767
T1 sequence (Q99767 563-664, limits assumed, looked up): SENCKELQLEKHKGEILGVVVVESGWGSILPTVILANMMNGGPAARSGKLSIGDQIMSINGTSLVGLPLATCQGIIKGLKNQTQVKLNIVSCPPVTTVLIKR

DFNB31_3, Q9P202 = molecular target: T2, DFNB31_3, Q9P202
T2 sequence (Q9P202 811-907, limits assumed, looked up): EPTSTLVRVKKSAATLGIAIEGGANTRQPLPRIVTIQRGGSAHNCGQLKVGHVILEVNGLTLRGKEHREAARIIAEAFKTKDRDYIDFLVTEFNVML

DLG1_3, Q12959 = molecular target: DLG1_3, Q12959
DLG2_2, Q15700 = molecular target: DLG2_2, Q15700
DLG3_3, Q92796 = molecular target: T3, DLG3_3, Q92796
T3 sequence (Q92796 374-475, limits assumed, looked up): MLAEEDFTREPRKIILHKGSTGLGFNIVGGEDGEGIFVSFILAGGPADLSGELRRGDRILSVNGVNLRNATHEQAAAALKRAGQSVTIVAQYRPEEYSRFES

DLG4_1, P78352 = molecular target: DLG4_1, P78352
DLG4_2, P78352 = molecular target: DLG4_2, P78352
DLG4_3, P78352 = molecular target: DLG4_3, P78352
FRMPD2_1, Q68DX3 = molecular target: FRMPD2_1, Q68DX3
FRMPD4, Q14CM0 = molecular target: FRMPD4, Q14CM0
GOPC, Q9HD26 = molecular target: GOPC, Q9HD26
GORASP2, Q9H8Y8 = molecular target: GORASP2, Q9H8Y8
GRIP1_7, Q9Y3R0 = molecular target: T4, GRIP1_7, Q9Y3R0
T4 sequence (Q9Y3R0 999-1096, limits assumed, looked up): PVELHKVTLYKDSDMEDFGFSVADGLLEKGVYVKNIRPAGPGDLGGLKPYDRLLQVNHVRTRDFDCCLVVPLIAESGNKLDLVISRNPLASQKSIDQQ

GRIP2_3, Q9C0E4 = molecular target: GRIP2_3, Q9C0E4
HTRA4, P83105 = molecular target: T5, HTRA4, P83105
T5 sequence (P83105 378-476, limits assumed, looked up): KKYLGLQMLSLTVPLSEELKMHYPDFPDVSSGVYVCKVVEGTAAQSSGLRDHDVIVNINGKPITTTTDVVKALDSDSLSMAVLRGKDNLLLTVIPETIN

Inadl_2, Q8NI35 = molecular target: Inadl_2, Q8NI35
Inadl_8, Q8NI35 = molecular target: Inadl_8, Q8NI35
LIMK2, P53671 = molecular target: LIMK2, P53671
LNX1_1, Q8TBB1 = molecular target: LNX1_1, Q8TBB1
LNX1_3, Q8TBB1 = molecular target: LNX1_3, Q8TBB1
MAGI2_3, Q86UL8 = molecular target: MAGI2_3, Q86UL8
MAGI2_5, Q86UL8 = molecular target: MAGI2_5, Q86UL8
MAST2, Q6P0Q8 = molecular target: MAST2, Q6P0Q8
NHERF3_1, Q5T2W1 = molecular target: T6, NHERF3_1, Q5T2W1
T6 sequence (Q5T2W1 4-100, limits assumed, looked up): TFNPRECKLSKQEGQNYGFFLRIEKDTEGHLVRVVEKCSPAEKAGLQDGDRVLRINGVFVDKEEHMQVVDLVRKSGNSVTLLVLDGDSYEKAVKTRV

NHERF4_1, Q86UT5-2 = molecular target: NHERF4_1, Q86UT5-2
NHERF4_4, Q86UT5 = molecular target: NHERF4_4, Q86UT5
PDZD2_2, O15018 = molecular target: T7, PDZD2_2, O15018
T7 sequence (O15018 329-429, limits assumed, looked up): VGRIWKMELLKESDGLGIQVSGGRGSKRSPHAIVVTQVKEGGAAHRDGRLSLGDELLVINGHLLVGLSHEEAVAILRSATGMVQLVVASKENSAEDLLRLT

SCRIB_1, Q14160 = molecular target: SCRIB_1, Q14160
SCRIB_2, Q14160 = molecular target: SCRIB_2, Q14160
SNX27, Q96L92 = molecular target: SNX27, Q96L92
TJP3_3, O95049 = molecular target: T8, TJP3_3, O95049
T8 sequence (O95049 375-456, limits assumed, looked up): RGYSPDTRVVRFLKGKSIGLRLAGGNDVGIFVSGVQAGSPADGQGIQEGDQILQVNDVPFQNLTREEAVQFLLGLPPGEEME

[1] = plain residues with an end cap or a label only (N-terminal biotin on a linker: ado-ado)
[2] = plain residues with an end cap or a label only (N-terminal biotin on a linker: ttds)

Chain of DLG4_3, P78352 (P78352 306-403): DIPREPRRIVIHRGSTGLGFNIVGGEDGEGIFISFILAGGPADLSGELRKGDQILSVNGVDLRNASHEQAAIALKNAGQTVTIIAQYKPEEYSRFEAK
Chain of DLG1_3, Q12959 (Q12959 457-571): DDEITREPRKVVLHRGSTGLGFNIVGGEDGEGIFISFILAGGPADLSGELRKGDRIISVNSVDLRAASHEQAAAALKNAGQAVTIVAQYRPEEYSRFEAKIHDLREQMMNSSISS
Chain of Inadl_2, Q8NI35 (Q8NI35 238-335): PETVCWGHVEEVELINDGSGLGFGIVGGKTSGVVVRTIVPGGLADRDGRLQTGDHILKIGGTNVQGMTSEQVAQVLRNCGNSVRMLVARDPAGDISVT
Chain of DLG4_1, P78352 (P78352 62-152): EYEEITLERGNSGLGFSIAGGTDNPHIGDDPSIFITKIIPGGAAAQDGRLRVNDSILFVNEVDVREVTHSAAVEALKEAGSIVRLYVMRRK
Chain of LNX1_1, Q8TBB1 (Q8TBB1 261-371): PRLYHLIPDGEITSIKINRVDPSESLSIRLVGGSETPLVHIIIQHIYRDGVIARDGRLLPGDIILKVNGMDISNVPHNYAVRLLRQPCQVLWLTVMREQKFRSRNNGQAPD
Chain of FRMPD4, Q14CM0 (Q14CM0 67-160): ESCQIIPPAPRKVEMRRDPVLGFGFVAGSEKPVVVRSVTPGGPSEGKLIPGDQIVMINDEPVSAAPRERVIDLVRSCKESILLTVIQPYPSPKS
Chain of Inadl_8, Q8NI35 (Q8NI35 1425-1530): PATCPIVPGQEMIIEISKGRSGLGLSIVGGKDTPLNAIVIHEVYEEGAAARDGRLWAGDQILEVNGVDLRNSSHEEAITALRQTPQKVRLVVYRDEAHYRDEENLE
Chain of LIMK2, P53671 (P53671 143-248): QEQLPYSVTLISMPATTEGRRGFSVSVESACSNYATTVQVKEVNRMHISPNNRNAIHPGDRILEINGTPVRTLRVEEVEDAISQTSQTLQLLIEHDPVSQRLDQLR
Chain of MAGI2_3, Q86UL8 (Q86UL8 600-682): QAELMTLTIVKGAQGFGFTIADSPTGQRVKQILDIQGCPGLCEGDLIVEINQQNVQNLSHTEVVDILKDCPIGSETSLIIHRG
Chain of DLG4_2, P78352 (P78352 155-259): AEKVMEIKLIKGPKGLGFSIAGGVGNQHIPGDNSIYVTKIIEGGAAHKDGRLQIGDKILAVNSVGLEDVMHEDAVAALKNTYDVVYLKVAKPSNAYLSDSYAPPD
Chain of NHERF4_4, Q86UT5 (Q86UT5 464-550): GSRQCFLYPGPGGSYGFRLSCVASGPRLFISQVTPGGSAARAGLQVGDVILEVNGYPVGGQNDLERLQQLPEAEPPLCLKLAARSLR
Chain of DLG2_2, Q15700 (Q15700 189-283): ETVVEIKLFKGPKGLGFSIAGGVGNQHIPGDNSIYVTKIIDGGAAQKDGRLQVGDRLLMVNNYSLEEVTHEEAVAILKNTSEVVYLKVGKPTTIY
Chain of FRMPD2_1, Q68DX3 (Q68DX3 770-861): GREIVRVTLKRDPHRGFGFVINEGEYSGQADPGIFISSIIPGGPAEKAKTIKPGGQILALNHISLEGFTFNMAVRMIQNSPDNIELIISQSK
Chain of GRIP2_3, Q9C0E4 (Q9C0E4 238-339): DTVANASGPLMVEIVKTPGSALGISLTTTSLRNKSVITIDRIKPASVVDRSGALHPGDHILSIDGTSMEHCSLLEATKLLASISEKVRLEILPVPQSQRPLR
Chain of MAGI2_5, Q86UL8 (Q86UL8 915-1017): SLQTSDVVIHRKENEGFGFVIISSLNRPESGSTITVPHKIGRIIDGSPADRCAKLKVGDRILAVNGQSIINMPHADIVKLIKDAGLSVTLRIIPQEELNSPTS
Chain of SCRIB_2, Q14160 (Q14160 857-960): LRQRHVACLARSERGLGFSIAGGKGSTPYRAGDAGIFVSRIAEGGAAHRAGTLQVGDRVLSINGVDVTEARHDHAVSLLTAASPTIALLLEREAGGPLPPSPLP
Chain of LNX1_3, Q8TBB1 (Q8TBB1 500-596): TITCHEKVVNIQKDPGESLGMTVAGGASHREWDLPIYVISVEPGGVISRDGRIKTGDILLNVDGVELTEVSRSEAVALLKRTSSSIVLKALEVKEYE
Chain of SCRIB_1, Q14160 (Q14160 718-814): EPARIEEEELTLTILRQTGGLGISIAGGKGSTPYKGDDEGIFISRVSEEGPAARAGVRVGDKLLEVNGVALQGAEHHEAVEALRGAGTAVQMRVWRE
Chain of NHERF4_1, Q86UT5-2 (Q86UT5 other isoform, or with tags, fused parts or gaps): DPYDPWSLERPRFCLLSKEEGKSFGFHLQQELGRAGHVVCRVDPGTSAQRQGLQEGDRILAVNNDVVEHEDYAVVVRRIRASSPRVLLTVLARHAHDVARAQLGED
Chain of MAST2, Q6P0Q8 (Q6P0Q8 1099-1202): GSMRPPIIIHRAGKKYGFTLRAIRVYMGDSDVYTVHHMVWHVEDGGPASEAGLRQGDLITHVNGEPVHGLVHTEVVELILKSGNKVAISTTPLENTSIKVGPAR

For RGGFGRQTQI [NCBP2L, A6PVI3], the pKd (APBA2_1, Q99767; [1]) was “below the threshold”, the pKd (DFNB31_3, Q9P202; [1]) was 3.67 and the pKd (DLG1_3, Q12959; [1]) was 4.24. For the same binder, the pKd (DLG2_2, Q15700; [1]) was 4.65, the pKd (DLG3_3, Q92796; [1]) was 3.82 and the pKd (DLG4_1, P78352; [1]) was 4.25. For the same binder, the pKd (DLG4_2, P78352; [1]) was 4.64, the pKd (DLG4_3, P78352; [1]) was 4.17 and the pKd (FRMPD2_1, Q68DX3; [1]) was “below the threshold”. For the same binder, the pKd (FRMPD4, Q14CM0; [1]) was “below the threshold”, the pKd (GOPC, Q9HD26; [1]) was 4.05 and the pKd (GORASP2, Q9H8Y8; [1]) was 4.19. The pKd (GRIP1_7, Q9Y3R0; [1]) was “below the threshold”, the pKd (GRIP2_3, Q9C0E4; [1]) was “below the threshold” and the pKd (HTRA4, P83105; [1]) was “below the threshold”. The pKd (Inadl_2, Q8NI35; [1]) was “below the threshold”, the pKd (Inadl_8, Q8NI35; [1]) was 3.49 and the pKd (LIMK2, P53671; [1]) was “below the threshold”. For the same binder, the pKd (LNX1_1, Q8TBB1; [1]) was “below the threshold”, the pKd (LNX1_3, Q8TBB1; [1]) was “below the threshold” and the pKd (MAGI2_3, Q86UL8; [1]) was 3.51. The pKd (MAGI2_5, Q86UL8; [1]) was “below the threshold”, the pKd (MAST2, Q6P0Q8; [1]) was 5.6 and the pKd (NHERF3_1, Q5T2W1; [1]) was 4.54. For the same binder, the pKd (NHERF4_1, Q86UT5-2; [1]) was 3.8, the pKd (NHERF4_4, Q86UT5; [1]) was “below the threshold” and the pKd (PDZD2_2, O15018; [1]) was 3.76. The pKd (SCRIB_1, Q14160; [1]) was 3.61, the pKd (SCRIB_2, Q14160; [1]) was “below the threshold” and the pKd (SNX27, Q96L92; [1]) was “below the threshold”. For the same binder, the pKd (TJP3_3, O95049; [1]) was “below the threshold”.

In the case of DPLTPSRSQL [DGKK, Q5KSL6], the pKd (APBA2_1, Q99767; [2]) is reported as “below the threshold”, the pKd (DFNB31_3, Q9P202; [2]) is reported as “below the threshold” and the pKd (DLG1_3, Q12959; [2]) is reported as “below the threshold”. For the same binder, the pKd (DLG2_2, Q15700; [2]) was 3.59, the pKd (DLG3_3, Q92796; [2]) was “below the threshold” and the pKd (DLG4_1, P78352; [2]) was “below the threshold”. The pKd (DLG4_2, P78352; [2]) was “below the threshold”, the pKd (DLG4_3, P78352; [2]) was “below the threshold” and the pKd (FRMPD2_1, Q68DX3; [2]) was “below the threshold”. For the same binder, the pKd (FRMPD4, Q14CM0; [2]) was “below the threshold”, the pKd (GOPC, Q9HD26; [2]) was “below the threshold” and the pKd (GORASP2, Q9H8Y8; [2]) was 4.21. The pKd (GRIP1_7, Q9Y3R0; [2]) was “below the threshold”, the pKd (GRIP2_3, Q9C0E4; [2]) was “below the threshold” and the pKd (HTRA4, P83105; [2]) was “below the threshold”. For the same binder, the pKd (Inadl_2, Q8NI35; [2]) was “below the threshold”, the pKd (Inadl_8, Q8NI35; [2]) was “below the threshold” and the pKd (LIMK2, P53671; [2]) was “below the threshold”. For the same binder, the pKd (LNX1_1, Q8TBB1; [2]) was “below the threshold”, the pKd (LNX1_3, Q8TBB1; [2]) was “below the threshold” and the pKd (MAGI2_3, Q86UL8; [2]) was “below the threshold”. For the same binder, the pKd (MAGI2_5, Q86UL8; [2]) was “below the threshold”, the pKd (MAST2, Q6P0Q8; [2]) was 4.36 and the pKd (NHERF3_1, Q5T2W1; [2]) was “below the threshold”. The pKd (NHERF4_1, Q86UT5-2; [2]) was 3.81, the pKd (NHERF4_4, Q86UT5; [2]) was “below the threshold” and the pKd (PDZD2_2, O15018; [2]) was “below the threshold”. The pKd (SCRIB_1, Q14160; [2]) was “below the threshold”, the pKd (SCRIB_2, Q14160; [2]) was “below the threshold” and the pKd (SNX27, Q96L92; [2]) was “below the threshold”. The pKd (TJP3_3, O95049; [2]) was “below the threshold”.
